Results reported in article PMC4703963, “Oxidative Dimerization of PHD2 is Responsible for its Inactivation and Contributes to Metabolic Reprogramming via HIF-1α Activation” (Scientific Reports, 2016).

B1: Flag-tagged PHD3 (natural protein, human, UniProt Q9H6Z9 1-239, looked up)
chain: MPLGHIMRLDLEKIALEYIVPCLHEVGFCYLDNFLGEVVGDCVLERVKQLHCTGALRDGQLAGPRAGVSKRHLRGDQITWIGGNEEGCEAISFLLSLIDRLVLYCGSRLGKYYVKERSKAMVACYPGNGTGYVRHVDNPNGDGRCITCIYYLNKNWDAKLHGGILRIFPEGKSFIADVEPIFDRLLFFWSDRRNPHEVQPSYATRYAMTVWYFDAEERAEAKKKFRNLTRKTESALTED
notes: PHD3, human; Flag-tagged lentiviral vector from William Kaelin; also called Flag-PHD3; source: U2OS stably expressing (lentiviral vector), in lysate
B2: PHD3, endogenous (natural protein, human (endogenous in U2OS), UniProt Q9H6Z9 1-239, looked up)
chain: MPLGHIMRLDLEKIALEYIVPCLHEVGFCYLDNFLGEVVGDCVLERVKQLHCTGALRDGQLAGPRAGVSKRHLRGDQITWIGGNEEGCEAISFLLSLIDRLVLYCGSRLGKYYVKERSKAMVACYPGNGTGYVRHVDNPNGDGRCITCIYYLNKNWDAKLHGGILRIFPEGKSFIADVEPIFDRLLFFWSDRRNPHEVQPSYATRYAMTVWYFDAEERAEAKKKFRNLTRKTESALTED
notes: PHD3, endogenous in U2OS cells; source: endogenous, U2OS lysate

Target: the molecule itself
Assay: non-reducing SDS-PAGE with immunoblot; total cell lysates (1% IGEPAL, 150 mM NaCl, 50 mM Tris-HCl pH 7.9, no reducing agent) in sample buffer without β-ME; cells treated with H2O2 (50-200 uM), T-hydro (1-3 uM), diamide (0.1-1 mM), 10% FBS or expressing H-ras V12

Row | Protein | stoichiometry N
1 | B1 | 2
2 | B2 | 2
